Four molecules from PMC11514480 can be followed below.

Assay in all cases: smFRET
For data set [1], the target named is T1, human RPA (RPA70-RPA32-RPA14) (human, UniProt P27694;P15927;P35244 1-616;1-270;1-121).
A further data set concerns the target yeast RPA (Saccharomyces cerevisiae, UniProt P22336;P26754;P26755 1-621;1-273;1-122).
Data set [2] concerns the target T1, human RPA (RPA70-RPA32-RPA14). The source holds these as a separate data set.

Where two headings read alike, the source gives them in different places.

T1 sequence (P27694 whole entry, chain 1 of 3): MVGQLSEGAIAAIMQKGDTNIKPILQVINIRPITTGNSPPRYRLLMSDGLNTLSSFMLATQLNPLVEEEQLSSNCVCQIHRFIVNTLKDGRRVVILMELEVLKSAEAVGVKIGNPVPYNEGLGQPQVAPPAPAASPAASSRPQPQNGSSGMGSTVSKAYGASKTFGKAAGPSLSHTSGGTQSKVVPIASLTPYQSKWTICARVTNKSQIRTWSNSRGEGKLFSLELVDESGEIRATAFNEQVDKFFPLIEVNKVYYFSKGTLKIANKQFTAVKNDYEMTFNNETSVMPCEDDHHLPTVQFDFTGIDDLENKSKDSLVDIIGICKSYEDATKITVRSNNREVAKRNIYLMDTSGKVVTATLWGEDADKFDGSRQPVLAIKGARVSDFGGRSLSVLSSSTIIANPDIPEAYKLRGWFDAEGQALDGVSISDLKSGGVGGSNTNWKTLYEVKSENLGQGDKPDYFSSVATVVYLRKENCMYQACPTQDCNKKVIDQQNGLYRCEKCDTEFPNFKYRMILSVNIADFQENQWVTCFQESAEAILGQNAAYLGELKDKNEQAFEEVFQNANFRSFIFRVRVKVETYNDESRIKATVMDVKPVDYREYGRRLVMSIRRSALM
T1 sequence (P15927 whole entry, chain 2 of 3): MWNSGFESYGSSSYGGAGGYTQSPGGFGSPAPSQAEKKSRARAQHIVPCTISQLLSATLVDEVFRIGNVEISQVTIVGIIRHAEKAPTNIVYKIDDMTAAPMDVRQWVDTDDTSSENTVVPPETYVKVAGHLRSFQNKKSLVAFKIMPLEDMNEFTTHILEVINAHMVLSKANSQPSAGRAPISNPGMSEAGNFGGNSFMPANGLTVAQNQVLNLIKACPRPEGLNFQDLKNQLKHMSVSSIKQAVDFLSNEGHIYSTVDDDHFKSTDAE
T1 sequence (P35244 whole entry, chain 3 of 3): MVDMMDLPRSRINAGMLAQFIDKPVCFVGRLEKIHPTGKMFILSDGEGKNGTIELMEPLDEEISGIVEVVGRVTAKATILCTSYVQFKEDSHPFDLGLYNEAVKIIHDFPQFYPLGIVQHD
yeast RPA, sequence (P22336 whole entry, chain 1 of 3): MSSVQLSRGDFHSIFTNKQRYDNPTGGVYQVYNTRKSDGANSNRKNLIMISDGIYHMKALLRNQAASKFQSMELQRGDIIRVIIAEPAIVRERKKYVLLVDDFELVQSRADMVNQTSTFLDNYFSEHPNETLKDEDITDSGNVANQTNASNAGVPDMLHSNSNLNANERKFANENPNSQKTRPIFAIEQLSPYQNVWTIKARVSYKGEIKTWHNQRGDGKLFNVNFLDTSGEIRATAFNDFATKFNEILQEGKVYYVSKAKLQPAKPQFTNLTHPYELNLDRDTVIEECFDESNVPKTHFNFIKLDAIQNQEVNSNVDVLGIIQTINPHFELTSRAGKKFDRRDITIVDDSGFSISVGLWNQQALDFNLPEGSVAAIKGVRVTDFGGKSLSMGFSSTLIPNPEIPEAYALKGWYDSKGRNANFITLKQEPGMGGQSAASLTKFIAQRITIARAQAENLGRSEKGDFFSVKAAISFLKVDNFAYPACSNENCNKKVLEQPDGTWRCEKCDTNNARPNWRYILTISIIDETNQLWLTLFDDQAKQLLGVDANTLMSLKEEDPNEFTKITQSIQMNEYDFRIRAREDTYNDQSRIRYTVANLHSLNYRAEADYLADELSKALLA
yeast RPA, sequence (P26754 whole entry, chain 2 of 3): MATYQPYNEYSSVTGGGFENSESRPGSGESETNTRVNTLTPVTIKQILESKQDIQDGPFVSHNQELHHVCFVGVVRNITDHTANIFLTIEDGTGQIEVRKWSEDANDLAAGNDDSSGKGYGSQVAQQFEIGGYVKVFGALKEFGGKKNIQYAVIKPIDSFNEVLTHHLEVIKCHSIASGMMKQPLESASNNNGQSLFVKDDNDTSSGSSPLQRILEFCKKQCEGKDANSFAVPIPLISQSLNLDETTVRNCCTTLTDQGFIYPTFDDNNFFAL
yeast RPA, sequence (P26755 whole entry, chain 3 of 3): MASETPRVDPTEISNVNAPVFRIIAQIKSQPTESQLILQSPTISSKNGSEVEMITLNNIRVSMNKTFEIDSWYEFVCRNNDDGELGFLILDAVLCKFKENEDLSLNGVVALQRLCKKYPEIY

Consider TTTTTTTTTTTTTTTTTTTTTTTTTTTTTTTTTTTTTTTTTTTTT (ssDNA) [(dT)45], for which the binding result in data set [1] is listed as “binds”.

As to TTTTTTTTTTTTTTTTTTTTTTTTT (ssDNA) [(dT)25], the binding result (with yeast RPA; in data set [2]) was “binds” in each case.

In the case of TTTTTTTTTTTTTTTTTTTTTTTTTTTTTT (ssDNA) [(dT)30], the binding result in data set [1] was “binds”.

TTTTTTTTTTTTTTT (ssDNA) [(dT)15]: the binding result in data set [1] was “binds”.
